Assay results taken from article PMC5593996.

Experiments:
Q13148 [1] = assay: NMR HSQC peak intensities (fraction of globular monomer); reduced samples: first treated with 5 mM H2O2, then with 25 mM DTT; conditions: other: NMR HSQC peak intensities (fraction of globular monomer)
[2] = molecular target: second RNA-recognition motif (RRM2) of TDP-43, wild type, residues 191-265 (human) (UniProt Q13148); assay: NMR HSQC peak intensities (fraction of globular monomer); 1 mM RRM2 under oxidation with 5 mM H2O2 (2 h or 24 h); loss of monomer signals taken as conversion into oligomers and aggregate particles; standard phosphate buffer pH 6.7
[3] = molecular target: second RNA-recognition motif (RRM2) of TDP-43, wild type, residues 191-265 (human) (UniProt Q13148); assay: cross-linking; disulfide-linked oligomers on non-reducing SDS-PAGE (14% tris-glycine, Coomassie, densitometry); 1 mM protein incubated 2 h with 5 mM H2O2
Q13148 [4] = assay: NMR HSQC peak intensities (fraction of globular monomer); 1 mM RRM2 under oxidation with 5 mM H2O2 (2 h or 24 h); loss of monomer signals taken as conversion into oligomers and aggregate particles; standard phosphate buffer pH 6.7; conditions: other: NMR HSQC peak intensities (fraction of globular monomer)
[5] = molecular target: second RNA-recognition motif (RRM2) of TDP-43, wild type, residues 191-265 (human) (UniProt Q13148); assay: NMR HSQC peak intensities (fraction of globular monomer); reduced samples: first treated with 5 mM H2O2, then with 25 mM DTT
Q13148 [6] = assay: dynamic light scattering + other: pulsed-field-gradient NMR diffusion; fully oxidized sample (5 mM H2O2, about 31 h); size distribution of aggregate particles fitted to both diffusion coefficients (Eq. 6), NMR on peak N265'

B1: second RNA-recognition motif (RRM2) of TDP-43, wild type, residues 191-265 (protein)
chain: MRKVFVGRCTEDMTEDELREFFSQYGDVMDVFIPKPFRAFAFVTFADDQIAQSLCGEDLIIKGISVHISNAEPKHN
- percent of protein mass still aggregated after 2 h oxidation and 3 h reduction (Q13148 [1]): ca. 19% of the protein by mass remains in the aggregate form
- percent of protein mass still aggregated after 24 h oxidation and 24 h reduction (Q13148 [1]): ca. 40% of the protein mass in this sample remains in the aggregated state
- percent (mass fraction) left as globular monomer after 24 h with 5 mM H2O2 [2]: 4.5%
- percent left as globular monomer after 2 h with 5 mM H2O2 [2]: 40%
- fraction of cross-linked protein molecules (gel densitometry, 2 h with 5 mM H2O2) [3]: 40%
- percent of the protein in aggregate particles after 2 h with 5 mM H2O2 (Q13148 [4]): 60% (±4%) of the protein has been transformed into APs
- percent monomer in the reduced samples [5]: 84%
- mass fraction of the aggregate mass in all other aggregate particles (Q13148 [6]): all other APs combined account for 83% of the aggregate mass
- mass fraction of the aggregate mass that is disulfide-bonded dimers (Q13148 [6]): The mass fraction of the disulfide-bonded dimers is 17%
